The supplement of paper PMC10567573

B1: SLC35F2 (parent)
chain: FVAFALCMFCLYSFMPLVIKVTSA

Variants of: B1
Experiment: protein stability index of a GFP-peptide fusion (GPS, HEK-293T) (PSI 1-6); higher = more stable
Details: c terminus: a fixed tail appended
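Further: lentivirally expressed fusions sorted by FACS into six bins by GFP to DsRed ratio, PSI derived from sequencing read proportions per bin multiplied by bin number.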

Q: For FVAFALCMFCLYSFMPLVIKVTSE [A24E], which protein stability index is on record?
A: 2.42

Q: Which protein stability index does the source give for FVAFALCMFCLYSFMPLVIKVTSC [A24C] here?
A: 1.31

Q: Which protein stability index does the source give for FVAFALCMFCLYSFMPLVIKVTSH [A24H] here?
A: 3.79

Q: Which protein stability index does the source give for FVAFALCMFCLYSFMPLVIKVTSI [A24I] here?
A: 2.65

Q: Which protein stability index does the source give for FVAFALCMFCLYSFMPLVIKVTSK [A24K] here?
A: 2.04

Q: With FVAFALCMFCLYSFMPLVIKVTSD [A24D] as the variant, how does the protein stability index read?
A: 2.65

Q: Which protein stability index does the source give for FVAFALCMFCLYSFMPLVIKVTSM [A24M] here?
A: 2.66

Q: Which protein stability index does the source give for FVAFALCMFCLYSFMPLVIKVTSL [A24L] here?
A: 3.27

Q: With FVAFALCMFCLYSFMPLVEKVTSA [I19E] as the variant, how does the protein stability index read?
A: 2.87

Q: With FVAFALCMFCLYSFMPLVLKVTSA [I19L] as the variant, how does the protein stability index read?
A: 3.06

Q: Which protein stability index does the source give for FVAFALCMFCLYSFMPLVPKVTSA [I19P] here?
A: 2.86

Q: With FVAFALCMFCLYSFMPLVQKVTSA [I19Q] as the variant, how does the protein stability index read?
A: 3.62

Q: With FVAFALCMFCLYSFMPLVGKVTSA [I19G] as the variant, how does the protein stability index read?
A: 3.04

Q: With FVAFALCMFCLYSFMPLVTKVTSA [I19T] as the variant, how does the protein stability index read?
A: 3.51

Q: With FVAFALCMFCLYSFMPLVKKVTSA [I19K] as the variant, how does the protein stability index read?
A: 3.47

Q: For FVAFALCMFCLYSFMPLVSKVTSA [I19S], which protein stability index is on record?
A: 2.42

Q: For FVAFALCMFCLYSFMPLVVKVTSA [I19V], which protein stability index is on record?
A: 3.21

Q: For FVAFALCMFCLYSFMPLVMKVTSA [I19M], which protein stability index is on record?
A: 2.48

Q: For FVAFALCMFCLYSFMPLVHKVTSA [I19H], which protein stability index is on record?
A: 2.14

Q: Which protein stability index does the source give for FVAFALCMFCLYSFMPLVDKVTSA [I19D] here?
A: 2.73

Q: Which protein stability index does the source give for FVAFALCMFCLYSFMPLVCKVTSA [I19C] here?
A: 2.7

Q: With FVAFALCMFCLYSFMPLVWKVTSA [I19W] as the variant, how does the protein stability index read?
A: 4.11

Q: With FVAFALCMFCLYSFMPLVFKVTSA [I19F] as the variant, how does the protein stability index read?
A: 2.69

Q: For FVAFALCMFCLYSFMPLVYKVTSA [I19Y], which protein stability index is on record?
A: 1.94

Q: For FVAFALCMFCLYSFMPLVIKVTWA [S23W], which protein stability index is on record?
A: 2.54

Q: For FVAFALCMFCLYSFMPLVIKVTYA [S23Y], which protein stability index is on record?
A: 2.03

Q: With FVAFALCMFCLYSFMPLVIKVTRA [S23R] as the variant, how does the protein stability index read?
A: 2.78

Q: With FVAFALCMFCLYSFMPLVIKVTAA [S23A] as the variant, how does the protein stability index read?
A: 2.39

Q: Which protein stability index does the source give for FVAFALCMFCLYSFMPLVIKVTGA [S23G] here?
A: 3.19

Q: Which protein stability index does the source give for FVAFALCMFCLYSFMPLVIKVTPA [S23P] here?
A: 2.96

Q: Which protein stability index does the source give for FVAFALCMFCLYSFMPLVIKVTIA [S23I] here?
A: 2.45

Q: With FVAFALCMFCLYSFMPLVIKVTTA [S23T] as the variant, how does the protein stability index read?
A: 2.71

Q: With FVAFALCMFCLYSFMPLVIKVTEA [S23E] as the variant, how does the protein stability index read?
A: 2.49

Q: Which protein stability index does the source give for FVAFALCMFCLYSFMPLVIKVTFA [S23F] here?
A: 3.51

Q: For FVAFALCMFCLYSFMPLVIKVTKA [S23K], which protein stability index is on record?
A: 2

Q: With FVAFALCMFCLYSFMPLVIKVTCA [S23C] as the variant, how does the protein stability index read?
A: 2.9

Q: For FVAFALCMFCLYSFMPLVIKVTDA [S23D], which protein stability index is on record?
A: 2.85

Q: For FVAFALCMFCLYSFMPLVIKVTLA [S23L], which protein stability index is on record?
A: 2.89

Q: With FVAFALCMFCLYSFMPLVIKVTQA [S23Q] as the variant, how does the protein stability index read?
A: 2.39

Q: For FVAFALCMFCLYSFMPLVIGVTSA [K20G], which protein stability index is on record?
A: 2.9

Q: For FVAFALCMFCLYSFMPLVIVVTSA [K20V], which protein stability index is on record?
A: 2.56

Q: With FVAFALCMFCLYSFMPLVISVTSA [K20S] as the variant, how does the protein stability index read?
A: 2.55

Q: Which protein stability index does the source give for FVAFALCMFCLYSFMPLVIFVTSA [K20F] here?
A: 2.03

Q: For FVAFALCMFCLYSFMPLVIIVTSA [K20I], which protein stability index is on record?
A: 2.63

Q: For FVAFALCMFCLYSFMPLVICVTSA [K20C], which protein stability index is on record?
A: 3.38

Q: With FVAFALCMFCLYSFMPLVIMVTSA [K20M] as the variant, how does the protein stability index read?
A: 2.62

Q: For FVAFALCMFCLYSFMPLVINVTSA [K20N], which protein stability index is on record?
A: 3.16

Q: Which protein stability index does the source give for FVAFALCMFCLYSFMPLVIRVTSA [K20R] here?
A: 3.56

Q: For FVAFALCMFCLYSFMPLVIAVTSA [K20A], which protein stability index is on record?
A: 2.95

Q: With FVAFALCMFCLYSFMPLVIHVTSA [K20H] as the variant, how does the protein stability index read?
A: 1.78

Q: For FVAFALCMFCLYSFMPLVIDVTSA [K20D], which protein stability index is on record?
A: 2.22

Q: With FVAFALCMFCLYSFMPLVIPVTSA [K20P] as the variant, how does the protein stability index read?
A: 2.56

Q: For FVAFALCMFCLYSFMPLVILVTSA [K20L], which protein stability index is on record?
A: 3.04

Q: With FVAFALCMFCLYSFMPLVIEVTSA [K20E] as the variant, how does the protein stability index read?
A: 2.71

Q: For FVAFALCMFCLYSFMPLVITVTSA [K20T], which protein stability index is on record?
A: 3.12

Q: With FVAFALCMFCLYSFMPLVIYVTSA [K20Y] as the variant, how does the protein stability index read?
A: 2.76

Q: For FVAFALCMFCLYSFMPLVIQVTSA [K20Q], which protein stability index is on record?
A: 3.38

Q: Which protein stability index does the source give for FVAFALCMFCLYSFMPLVIKFTSA [V21F] here?
A: 2.01

Q: Which protein stability index does the source give for FVAFALCMFCLYSFMPLVIKLTSA [V21L] here?
A: 2.06

Q: With FVAFALCMFCLYSFMPLVIKPTSA [V21P] as the variant, how does the protein stability index read?
A: 2.76

Q: For FVAFALCMFCLYSFMPLVIKHTSA [V21H], which protein stability index is on record?
A: 2.9

Q: With FVAFALCMFCLYSFMPLVIKYTSA [V21Y] as the variant, how does the protein stability index read?
A: 3.26

Q: With FVAFALCMFCLYSFMPLVIKETSA [V21E] as the variant, how does the protein stability index read?
A: 3.06

Q: For FVAFALCMFCLYSFMPLVIKSTSA [V21S], which protein stability index is on record?
A: 3.11

Q: For FVAFALCMFCLYSFMPLVIKATSA [V21A], which protein stability index is on record?
A: 2.26

Q: For FVAFALCMFCLYSFMPLVIKMTSA [V21M], which protein stability index is on record?
A: 3.27

Q: With FVAFALCMFCLYSFMPLVIKRTSA [V21R] as the variant, how does the protein stability index read?
A: 2.38

Q: For FVAFALCMFCLYSFMPLVIKNTSA [V21N], which protein stability index is on record?
A: 4.29

Q: With FVAFALCMFCLYSFMPLVIKWTSA [V21W] as the variant, how does the protein stability index read?
A: 3.02

Q: Which protein stability index does the source give for FVAFALCMFCLYSFMPLVIKITSA [V21I] here?
A: 2.6

Q: For FVAFALCMFCLYSFMPLVIKQTSA [V21Q], which protein stability index is on record?
A: 1.85

Q: With FVAFALCMFCLYSFMPLVIKCTSA [V21C] as the variant, how does the protein stability index read?
A: 1.7

Q: With FVAFALCMFCLYSFMPLVIKVESA [T22E] as the variant, how does the protein stability index read?
A: 3.47

Q: With FVAFALCMFCLYSFMPLVIKVNSA [T22N] as the variant, how does the protein stability index read?
A: 3.68

Q: With FVAFALCMFCLYSFMPLVIKVGSA [T22G] as the variant, how does the protein stability index read?
A: 2.96

Q: For FVAFALCMFCLYSFMPLVIKVWSA [T22W], which protein stability index is on record?
A: 2.77

Q: Which protein stability index does the source give for FVAFALCMFCLYSFMPLVIKVSSA [T22S] here?
A: 2.33

Q: For FVAFALCMFCLYSFMPLVIKVRSA [T22R], which protein stability index is on record?
A: 3.29

Q: Which protein stability index does the source give for FVAFALCMFCLYSFMPLVIKVDSA [T22D] here?
A: 2.05

Q: Which protein stability index does the source give for FVAFALCMFCLYSFMPLVIKVASA [T22A] here?
A: 2.77

Q: For FVAFALCMFCLYSFMPLVIKVCSA [T22C], which protein stability index is on record?
A: 2.54

Q: For FVAFALCMFCLYSFMPLVIKVISA [T22I], which protein stability index is on record?
A: 2.71

Q: For FVAFALCMFCLYSFMPLVIKVLSA [T22L], which protein stability index is on record?
A: 3.31

Q: For FVAFALCMFCLYSFMPLVIKVYSA [T22Y], which protein stability index is on record?
A: 2.75

Q: With FVAFALCMFCLYSFMPLVIKVPSA [T22P] as the variant, how does the protein stability index read?
A: 3.35

Q: Which protein stability index does the source give for FVAFALCMFCLYSFMPLVIKVFSA [T22F] here?
A: 2.36

Q: Which protein stability index does the source give for FVAFALCMFCLYSFMPLVIKVVSA [T22V] here?
A: 3.01

Q: Which protein stability index does the source give for FVAFALCMFCLYSFMPLVIKVHSA [T22H] here?
A: 3.96

Q: For FVAFALCMFCLYSFMPLVIKVQSA [T22Q], which protein stability index is on record?
A: 3.07

Q: With FVAFALCMFCLYSFMPLRIKVTSA [V18R] as the variant, how does the protein stability index read?
A: 3.05

Q: With FVAFALCMFCLYSFMPLWIKVTSA [V18W] as the variant, how does the protein stability index read?
A: 2.6

Q: With FVAFALCMFCLYSFMPLSIKVTSA [V18S] as the variant, how does the protein stability index read?
A: 2.91

Q: For FVAFALCMFCLYSFMPLTIKVTSA [V18T], which protein stability index is on record?
A: 2.57

Q: For FVAFALCMFCLYSFMPLYIKVTSA [V18Y], which protein stability index is on record?
A: 2.54
